# Numbered stars: 1 amine (or outer) side, 2 acyl side, 3 side chain; on linkers, the order of the positions; unused ones are H or OH. Bridge positions count the residues as written; N and C are the ends. Square brackets hold non-standard residues; d marks the D form. Side chains are listed from the residue outwards. Peptide text beside a SMILES is read from it. * marks the point of attachment. X2 = CCCCCCCCCCCCCCCCCC(=O)N[C@@H](CCC(=O)N[C@@H](CCC(=O)N[C@@H](CCC(=O)NCCCOCCOCCOCCCNC(=O)CCC(=O)NCCCOCCOCCOCCCNC(=O)CCC(=O)NCCCOCCOCCOCCCNC(=O)CCC(=O)NCCCOCCOCCOCCCN*)C(=O)O)C(=O)O)C(=O)O; X1 = CCCCCCCCCCCCCCCC(=O)N[C@@H](CCC(=O)N[C@@H](CCC(=O)N[C@@H](CCC(=O)NCCCOCCOCCOCCCNC(=O)CCC(=O)NCCCOCCOCCOCCCNC(=O)CCC(=O)NCCCOCCOCCOCCCN*)C(=O)O)C(=O)O)C(=O)O; TTDS = 4-[3-[2-[2-(3-aminopropoxy)ethoxy]ethoxy]propylamino]-4-oxo-butanoyl; γGlu = O=C(O)[C@H](CCC(=O)[*:2])N[*:1]; Stearoyl = CCCCCCCCCCCCCCCCCC(=O)*; Suc = O=C(CCC(=O)[*:2])[*:1]; Aib = CC(C)(N)C(=O)O
# Experiments:
# [1] = biological target: T1, human RXFP1 (Homo sapiens, UniProt Q9HBX9); assay: In vitro OVCAR5 cAMP assay (HTRF); type: cell-based; settings: OVCAR 5 cells (cAMP); for EC50: Table 2; for Emax: maximal cAMP relative to human relaxin-2, Table 2
# T1 construct: OVCAR5 cells expressing endogenous human RXFP1; endogenous in cells; host or cells: OVCAR5 cells
# T1 sequence (Q9HBX9 1-757): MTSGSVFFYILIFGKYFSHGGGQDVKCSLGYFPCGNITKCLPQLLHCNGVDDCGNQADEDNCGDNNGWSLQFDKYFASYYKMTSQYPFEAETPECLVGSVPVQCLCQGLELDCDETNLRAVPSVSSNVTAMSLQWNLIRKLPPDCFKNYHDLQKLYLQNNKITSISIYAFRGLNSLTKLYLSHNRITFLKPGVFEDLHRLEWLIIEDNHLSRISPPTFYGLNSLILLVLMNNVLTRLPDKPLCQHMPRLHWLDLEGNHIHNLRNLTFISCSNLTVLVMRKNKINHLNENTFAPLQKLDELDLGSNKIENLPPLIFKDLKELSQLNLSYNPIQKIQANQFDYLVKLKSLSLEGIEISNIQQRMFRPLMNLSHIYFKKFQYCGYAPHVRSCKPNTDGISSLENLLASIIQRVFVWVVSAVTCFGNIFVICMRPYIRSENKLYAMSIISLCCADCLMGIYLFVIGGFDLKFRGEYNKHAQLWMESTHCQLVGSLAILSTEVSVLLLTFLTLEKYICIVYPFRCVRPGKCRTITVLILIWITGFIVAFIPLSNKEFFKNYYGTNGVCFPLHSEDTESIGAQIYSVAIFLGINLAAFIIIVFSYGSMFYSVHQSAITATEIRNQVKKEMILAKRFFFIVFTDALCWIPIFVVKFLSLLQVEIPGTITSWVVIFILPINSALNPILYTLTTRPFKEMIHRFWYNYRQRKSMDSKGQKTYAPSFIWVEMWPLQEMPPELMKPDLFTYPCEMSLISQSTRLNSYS
# Text: OVCAR5 cells expressing endogenous human RXFP1 were used to test RXFP1 agonist properties of relaxin peptide analogues, and in particular of the peptides of sequence SEQ ID NO: 1-97.
# Since RXFP1 is a Gs coupled GPCR, increases in cAMP was used as readout of RXFP1 activation.
# Isobutyl methyl xanthine (IBMX) was used to inhibit phosphodiesterase activity facilitating cAMP measurements. HTRF (Homogenous Time Resolved Fluorescence) technology was used to detect cAMP due to its high sensitivity.
# In summary, OVCAR5 were grown in regular medium (RPMI) containing 10% fetal calf serum (FCS) and 1% antibiotics (penicillin/streptomycin).
# Before the experiments, cells were detached with accutase and incubated for 40 minutes at 37° C. with 1 mM (3-isobutyl-1-methylxanthine) IBMX.
# Cells were then distributed in 384 black well plates containing increasing concentrations of the different peptides in a fix volume of medium (without FCS).
# After an incubation of 30 min at 37° C. in a humid incubator in 5% CO2, the reaction was stopped by adding a fixed volume of a solution containing a lysis buffer and cAMP-D2 (cAMP labeled with the dye d2) and the anti-cAMP antibody linked to Europium and used for cAMP detection.
# Readout of the experiment were performed on a fluorimeter allowing HTRF measurement. Activation curves were generated by plotting the intracellular value of cAMP versus log 10 of the compound concentration.
# The 50% activation concentration (EC50) was calculated by nonlinear regression using the sigmoidal dose-response (variable slope) equation with Prism 5 software.
# Emax % was determined as the maximal intracellular value of cAMP for test compound (upper limit of cAMP vs concentration curve) divided by the maximal intracellular value of cAMP for human relaxin-2 (H2-R1x) determined in the same test occasion multiplied by 100.
# [2] = cited from earlier work
# [3] = biological target: T2, human RXFP1 (human, UniProt Q9HBX9 1-757); assay: cell-based or functional assay
# T2 sequence (looked up): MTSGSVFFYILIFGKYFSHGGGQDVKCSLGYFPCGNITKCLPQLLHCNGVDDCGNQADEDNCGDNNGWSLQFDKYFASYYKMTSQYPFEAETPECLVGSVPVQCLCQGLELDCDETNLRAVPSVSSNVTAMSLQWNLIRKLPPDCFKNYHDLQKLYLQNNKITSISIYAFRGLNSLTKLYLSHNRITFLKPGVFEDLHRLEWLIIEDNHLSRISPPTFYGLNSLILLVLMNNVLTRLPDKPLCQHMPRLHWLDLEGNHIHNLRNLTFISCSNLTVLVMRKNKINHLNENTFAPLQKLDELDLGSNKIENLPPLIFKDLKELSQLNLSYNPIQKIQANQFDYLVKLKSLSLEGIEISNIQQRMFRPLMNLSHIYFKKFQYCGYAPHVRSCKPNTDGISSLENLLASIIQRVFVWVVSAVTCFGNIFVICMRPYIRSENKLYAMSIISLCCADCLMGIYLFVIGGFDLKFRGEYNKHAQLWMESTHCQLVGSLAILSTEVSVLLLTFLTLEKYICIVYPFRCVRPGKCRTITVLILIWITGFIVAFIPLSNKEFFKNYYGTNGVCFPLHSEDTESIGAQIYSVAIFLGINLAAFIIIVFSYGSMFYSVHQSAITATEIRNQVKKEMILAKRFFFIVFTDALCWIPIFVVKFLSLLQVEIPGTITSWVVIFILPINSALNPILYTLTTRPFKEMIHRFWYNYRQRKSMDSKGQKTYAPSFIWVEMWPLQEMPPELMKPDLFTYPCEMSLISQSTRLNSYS
# [4] = biological target: T2, human RXFP1; assay: cell-based or functional assay; remark: listed apart in the source
molecule,measurement,setting,value
CCCCCCCCCCCCCCCCCC(=O)N[C@@H](CCC(=O)N[C@@H](CCC(=O)N[C@@H](CCC(=O)NCCCOCCOCCOCCCNC(=O)CCC(=O)NCCCOCCOCCOCCCNC(=O)CCC(=O)NCCCOCCOCCOCCCNC(=O)CCC(=O)NCCCOCCOCCOCCCNC(=O)CCC(=O)NCCCC[C@H](NC(=O)CNC(=O)[C@H](CCC(=O)O)NC(=O)C(C)(C)NC(=O)C(C)(C)NC(=O)[C@@H](NC(=O)[C@H](CCCCNC(C)=O)NC(=O)[C@H](C)NC(=O)[C@H](CCCNC(=N)N)NC(=O)[C@@H](NC(=O)[C@H](CCCCN)NC(=O)[C@H](CCC(=O)O)NC(=O)[C@H](CCCNC(=N)N)NC(=O)CNC(=O)[C@H](CCC(=O)O)NC(=O)[C@H](CC(C)C)NC(C)=O)C(C)C)[C@@H](C)CC)C(=O)N[C@@H](CO)C(=O)N[C@H](C(=O)N[C@@H](Cc1ccccc1)C(=O)N[C@@H](CO)C(=O)NC(C)(C)C(=O)N[C@@H](CCCNC(=N)N)C(=O)N[C@@H](CCCCN)C(=O)N[C@@H](CCCCNC(C)=O)C(N)=O)[C@@H](C)O)C(=O)O)C(=O)O)C(=O)O [compound 59] (Ac-LEGREKVRAK(Ac)I[Aib][Aib]EGK([Suc-X2])STFS[Aib]RKK(Ac)-NH2),EC50,[1],0.09 nM
same,Emax,[1],99%
"NCCCC[C@H](NC(=O)[C@@H]1CCCN1C(=O)[C@@H]1CSSC[C@H](NC(=O)CNC(=O)CNC(=O)CN)C(=O)N[C@@H](Cc2ccc(O)cc2)C(=O)N[C@@H](Cc2ccccc2)C(=O)N[C@@H](CCC(N)=O)C(=O)N[C@@H](CC(N)=O)C(=O)N1)C(=O)NCC(N)=O [terlipressin, Terlipressin] (H-GGGCYFQNCPKG-NH2; disulfide 4-9)",mortality,"[2]; at 3 months, patients receiving terlipressin and standard of care (e.g., albumin), Wong et al. 2021",51%
same,patients requiring discontinuation of treatment for severe side effects,"[2]; human, in vivo",up to 10%
same,patients with side effects,"[2]; human, in vivo",up to 40%
CCCCCCCCCCCCCCCC(=O)N[C@@H](CCC(=O)N[C@@H](CCC(=O)N[C@@H](CCC(=O)NCCCOCCOCCOCCCNC(=O)CCC(=O)NCCCOCCOCCOCCCNC(=O)CCC(=O)NCCCOCCOCCOCCCNC(=O)CCC(=O)NCCCC[C@H](NC(=O)CNC(=O)[C@H](CCC(=O)O)NC(=O)C(C)(C)NC(=O)C(C)(C)NC(=O)[C@@H](NC(=O)[C@H](CCCCNC(C)=O)NC(=O)C(C)(C)NC(=O)[C@H](CCCNC(=N)N)NC(=O)[C@@H](NC(=O)[C@H](CCCCN)NC(=O)[C@H](CCC(=O)O)NC(=O)[C@H](CCCNC(=N)N)NC(=O)CNC(=O)[C@H](CCC(=O)O)NC(=O)[C@H](CC(C)C)NC(C)=O)C(C)C)[C@@H](C)CC)C(=O)N[C@@H](CO)C(=O)N[C@H](C(=O)N[C@@H](Cc1c[nH]c2ccccc12)C(=O)N[C@@H](CO)C(=O)NC(C)(C)C(=O)N[C@@H](CCCNC(=N)N)C(=O)N[C@@H](C)C(=O)N[C@@H](CCCCNC(C)=O)C(N)=O)[C@@H](C)O)C(=O)O)C(=O)O)C(=O)O [compound 82] (Ac-LEGREKVR[Aib]K(Ac)I[Aib][Aib]EGK([Suc-X1])STWS[Aib]RAK(Ac)-NH2),EC50,[1],0.54 nM
same,Emax,[1],95%
Ac-VIKLSGRELVRAQIAISGMSTWSKKKK-NH2 [KKKK(AcB7-29 C11.23S)],"EC50 (nM), cAMP assay in OVCAR 5 cells",[3],206 nM
same,"Emax, cAMP assay in OVCAR 5 cells",[3],84%
H-VIKLSGRELVRAQIAISGMSTWSKRSL-NH2 [B7-33 C11.23S],"EC50 (nM), cAMP assay in OVCAR 5 cells",[3],1640 nM
same,"Emax, cAMP assay in OVCAR 5 cells",[3],90%
Ac-LEGREKVRAK(Ac)I[Aib][Aib]EGK([TTDS-TTDS-TTDS-TTDS-γGlu-γGlu-γGlu-Stearoyl])STWS[Aib]RKK(Ac)-NH2 [Relaxin peptide analogue of SEQ ID NO: 58],"EC50 (nM), OVCAR 5 cells (cAMP)",[4],0.08 nM
same,"EMax, OVCAR 5 cells (cAMP)",[4],98%
Ac-VIKLSGRELVRAQIAISGMSTWSKRSL-NH2 [AcB7-33 C11.23S],"EC50 (nM), cAMP assay in OVCAR 5 cells",[3],929 nM
same,"Emax, cAMP assay in OVCAR 5 cells",[3],70%
